The values below come from patent US20260109745A1 (published 2026).

For the assay, the target named is T1, NEO-101 antibody (chimeric NPC-1 antibody).
T1 construct: Chimeric (murine variable, human constant regions); Used unlabelled, biotinylated, FITC-labelled or coupled to Dynal beads depending on the assay; also called NPC-1C; NPC-1-C
The experiment in a line: ELISA: peptide-biotin on NEO-101 coated plate. On the procedure:
To solve the poor binding of peptides to 96 well plate, peptides were biotinylated using EZ-link micro NHS Biotinylation kit (Pierce Cat #21955), and labeling efficiency checked by dot blot (50%). […] The solution was blocked with 200 μl of 1% milk in TBS at RT for 20 min. Aliquots of 100 μl peptide-biotin (1 μg/ml) in 0.1% milk-TBS were added, and incubated at RT of 2 hr, followed by three washes with TBST. Streptavidin-HRP (100 μl of 1:2000 diluted in 1:10 diluted blocking buffer) was added, and the wells incubated at RT for 1 hr, followed by three washed. TMB was then added, and the wells were read at 450 nm. Positive controls for NPC-1C binding used 4B6-biotin. The results are shown in FIG. 11, which indicates biotinylated peptides bind to NPC-1C coated plate.
(An ELISA detects its analyte on a solid surface through an enzyme-linked reagent.)

Ends that are not written are not given here.

T1 sequence (VH, as listed by the source limits assumed, chain 1 of 2): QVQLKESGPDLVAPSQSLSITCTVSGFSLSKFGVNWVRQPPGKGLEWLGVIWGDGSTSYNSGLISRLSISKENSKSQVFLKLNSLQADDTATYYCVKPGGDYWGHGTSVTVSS
T1 sequence (VL, as listed by the source limits assumed, chain 2 of 2): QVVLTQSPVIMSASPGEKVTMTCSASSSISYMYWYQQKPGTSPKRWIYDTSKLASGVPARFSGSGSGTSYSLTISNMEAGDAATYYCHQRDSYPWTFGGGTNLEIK

As for YSHSVHAIEDNWSPRGGGGS (also: biotinylated (NHS kit) in direct ELISA, unlabelled in competition assays, Negative control peptide) [synthetic peptide 4-1-3-C11 (control peptide)], the binding result is recorded as “no binding (tested: 1 ug/ml)”.
